Reference: the supplement of paper PMC9170038

Test system: K4 kissing-loop RNA reporter
Test: apparent KD of K4 kissing-loop reporter; higher = weaker reporter binding
Conditions: Eterna round: R107
Method: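 RNA-MaP round R107: designed RNA switches with theophylline, tryptophan, arginine or FMN aptamers are transcribed on-chip within common flanks. They are titrated with a labelled K4 kissing-loop RNA reporter in RNA-MaP buffer (100 mM Tris pH 7.5, 80 mM KCl, 4 mM MgCl2), without ligand or with the indicated ligand. Median apparent KD per design.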

[1] = input ligand: theophylline 20 uM
[2] = input ligand: tryptophan 2.4 mM
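Also: bound reporter read as fluorescence of individual clusters on recovered sequencing chips by microscopy, with normalized cluster intensities fitted with a binding model.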

Sequence | apparent KD of K4 kissing-loop reporter (input ligand: FMN 200 uM) | apparent KD of K4 kissing-loop reporter (input ligand: arginine 13.2 mM) | apparent KD of K4 kissing-loop reporter (input ligand: none) | apparent KD of K4 kissing-loop reporter [1] | apparent KD of K4 kissing-loop reporter [2]
UGAUACCAGACGGCCGCCACUGCACCAGUCAAUGACUGAGUGUGGUAAUGCUCAGUGAUGUUGAGUAGGACCGGGUCUGGUAUCU [Mod of Eli's TrypBX 8 v2] | 135 nM | 124 nM | 131 nM | 114 nM | 124 nM
UGAUACCAGACUGAUACCAGCAAGUGAUGUUUGUUGAUCAAAAGCAGUCAAAGACUGCUUUGCCCUUGGCAGCAGUCUGGUAUCU [#10 K4 Theophylline B Exclusion] | 167 nM | 148 nM | 166 nM | 276 nM | 141 nM
UGAUACCAGACUGAUACCAGCCAGUGAUGUUGGCUAAGCCAAAUAGGUGUCAAAGACACCGGCCCUUGGCAGCAGUCUGGUAUCU [TheoBX 2 #SwitchBubble #StaticStem] | 133 nM | 113 nM | 126 nM | 136 nM | 119 nM
UGAUACCAGACUGAUACCAGCGAGUGAUGUUCGCUGAAAUCAGGGUCAAAGACCCUGUCUCGCCCUUGGCAGCAGUCUGGUAUCU [TheoBX 20 #SwitchBubble #StaticStem] | 147 nM | 120 nM | 133 nM | 185 nM | 128 nM
UGAUAGGACAGAAGGAGCGGAAGUGAUGUUUCCUAAAGGAUAAAGGUGUCAAAGACACCCUUCCAGGUAGGUCGCUGUCCUAUCU [ArgBX 16 #Palindromic #SwitchBubble #StaticStem] | 549 nM | 923 nM | 579 nM | 532 nM | 566 nM
UGAUAGGACAGAAGGAGCGGGAGUGAUGUUCCCAAAAGGGUAAGGUGUCAAAAGACACCCUUCCAGGUAGGUCGCUGUCCUAUCU | 97.7 nM | 105 nM | 97.5 nM | 102 nM | 83.9 nM
UGAUAGGACAGAAGGAGCGGUAGUGAUGUUACCAAAAGGAUAAGGUGUCAAAAGACACCCUACCAGGUAGGUCGCUGUCCUAUCU | 124 nM | 112 nM | 107 nM | 85.1 nM | 109 nM
UGAUAGGACAGAAGGAGCGGUAGUGAUGUUACCAAAAGGUUAAGGUGUCAAAAGACACCCUACCAGGUAGGUCGCUGUCCUAUCU | 152 nM | 164 nM | 161 nM | 126 nM | 136 nM
UGAUAGGACAGAAGGAGCGGUAGUGAUGUUGCCAAAAGUAUAAGGUGUCAAAAGACACCCUACCAGGUAGGUCGCUGUCCUAUCU | 319 nM | 346 nM | 354 nM | 541 nM | 340 nM
UGAUCUCGGCAGUGAUGUUGCAUAUGAGAAGGAGCGCACGAAAGUGCAGGUAGGUCGCUCAGCCAAAGAAAAUAAAACGAGAUCU [#SwitchBubble #K4Early] | 93.4 nM | 121 nM | 101 nM | 124 nM | 82 nM
UGCGCUGUGUCCUAAAAUGUCCUCCGGGAUACCAGAGUCUUUUUAUUCCCUUGGCAGCUUGAGUGAUGUUUGAUGCCGUUCUUGU [xxbxymullin] | 811 nM | 478 nM | 790 nM | 519 nM | 607 nM
UGGACAUGACUCGAUAAGAGUCAAUGGGAUACCAGUGACGAAAGUCACCCUUGGCAGCUCAACUGCCAGUGAUGUUGGUAGUCCA [Astros-Elo-mod#2] | 231 nM | 129 nM | 224 nM | 134 nM | 166 nM
UGGACCUGACUCGAUAAGAGUCAAGGAGAUACCAGCCACGAAAGUGGCCCUUGGCAGCUCUGCCAGUGAUGUUGGUCAAGGUCCU [#SwitchBubble 7 #StaticStem] | 976 nM | 696 nM | 912 nM | 393 nM | 776 nM
UGGAGUUGACGAAAAGUCAACUCCAGAGAAGGAGCGGACGAAAGUCCAGGUAGGUCGCUCACUACCAGUGAUGUUGGUACUAAAA | 167 nM | 190 nM | 204 nM | 204 nM | 181 nM
UGGAGUUGACGAAAAGUCAACUCCUGGGAAGGAGCGGACGAAAGUCCAGGUAGGUCGCUCACUACCAGUGAUGUUGGUACUUAAA | 229 nM | 350 nM | 293 nM | 299 nM | 206 nM
UGGAUAUAGUGAUGUUAUAUAGAGAUGGAUACCAGCUAAGAGAAUAGCCCUUGGCAGCCGAAAGAAGUAUCAUUAGAGAAGAAUG [ExTheophyl.Ae] | 294 nM | 231 nM | 280 nM | 253 nM | 212 nM

Sequence | apparent KD of K4 kissing-loop reporter (input ligand: FMN 200 uM) | apparent KD of K4 kissing-loop reporter (input ligand: arginine 13.2 mM) | apparent KD of K4 kissing-loop reporter (input ligand: none) | apparent KD of K4 kissing-loop reporter [1] | apparent KD of K4 kissing-loop reporter [2]
UGGCGGACGAUCCGGAGUGAUGUUCCGGAUACCAGCAGAAGAGCCUGCCCUUGGCAGCCGUACGACGCUGGGAGAGUCCGGCGUC [Soteina] | 83.8 nM | 90.3 nM | 81.1 nM | 66.7 nM | 76.9 nM
UGGGCCGCCUGAGGAUAUAGAGACGAGUGAUGUUCGUGGAUAAGAGCCAGUGAUGUUGGGUUAUUUCUAGAAGGCGGGCGAACUU [Exclusion FMN B GF9] | 144 nM | 95.1 nM | 98.6 nM | 164 nM | 131 nM
UGGUUUAACUGAAGGAGCGGCAAUUGAUAAGUAGAUAUAGUGAUGUUAUAUAAGAUAGAGAGCCAGGUAGGUCGCAGAGGUAUUU [ExArgB.P] | 215 nM | 218 nM | 212 nM | 248 nM | 197 nM
UGUAAUUCGGCGGCCGCCACUGACCAUAGCCUUCGAUGGCCAGUGAUGUUGGCCUCUGGCUCUAACAGGACCGGGCCGAAUUGCG [Sotetiqu] | 243 nM | 133 nM | 178 nM | 157 nM | 116 nM
UGUACCGACUCAGGAUAUGUCGUCGAAAGACGAAAUGGAGUGAUGUUCCUUAAACUGCGAAAGCAGACAGAAGGGAGUUGGUACU [FmnBS 29 C9+G77] | 137 nM | 200 nM | 235 nM | 233 nM | 216 nM
UGUACCGAGUCAGGAUAUCAUAAUAAAUCCAGUGAUGUUGGAAUAACCAGUACAAAGUACUGGCCUUGAGAAGGGACUUGGUACU [FmnBS 3 #SwitchBubble #StaticStem] | 167 nM | 146 nM | 163 nM | 147 nM | 147 nM
UGUAUGUGAUUUGAUACCAGACCAGCUGGUGGUUCACGAGUGAUGUUCGUGUUGGUUUGGGUCCCUUGGCAGCAAAUCGCAUACU [KL-SSTheoB12] | 159 nM | 121 nM | 144 nM | 128 nM | 140 nM
UGUAUGUGAUUUGAUACCAGACCAGCUGGUGUUUCAAGAGUGAUGUUCUUGUAGGUUUGGGUCCCUUGGCAGCAAAUCGCAUACU [KL-SSTheoB15] | 159 nM | 122 nM | 152 nM | 122 nM | 131 nM
UGUCAUUGGUCGGCCGCCACUAGGACCGGGUAUAACCUAGUGAUGUUAGUAAGUACGGCCGCCACUAGGACCGGGACCGAUGACU [KL-SSTryp-B19 #DoubleAptamer] | 484 nM | 369 nM | 583 nM | 462 nM | 87.5 nM
UGUCAUUGGUCGGCCGCCACUUCAUGUAGAGUGAUGUUUUGUAGGACGGAUCGAAAGAUCUGUCGGAGGACCGGGACCGAUGACU [FiskerMod 16 - Jieux - Same State - Tryptophan B] | 121 nM | 119 nM | 134 nM | 266 nM | 1690 nM
UGUCAUUGGUCGGCCGCCACUUCGUAUGAAGUGAUGUUUUGUAGAUUGUGUUGAAAGGUGUGGUGAAGGACCGGGACCGAUGACU [FiskerMod 23 - Jieux - Same State - Tryptophan B] | 898 nM | 623 nM | 1010 nM | 1050 nM | 769 nM
UGUCAUUGGUCGGCCGCCACUUGAAGGUCAAAGACCAUAGAGUGAUGUUCUAAGACGAAAGUCACAAGGACCGGGACCGAUGACU [TrypBS 3 #SwitchBubble #K4Middle] | 361 nM | 134 nM | 133 nM | 265 nM | 607 nM
UGUCAUUGGUCGGCCGCCACUUUAUAUGGAGUGAUGUUUUGUAAAUUGUGUUGAAAGGUGUGGUAAAGGACCGGGACCGAUGACU [FiskerMod 26 - Jieux - Same State - Tryptophan B] | 1030 nM | 637 nM | 931 nM | 727 nM | 651 nM
UGUCAUUGGUCUGAUACCAGCUUGAUCGGAAACGAUCUGCUGGAGUGAUGUUCCAAGUAAAGCCCUUGGCAGCAGACCGAUGACU [TheoBS 8 #SwitchBubble #StaticStem] | 129 nM | 59.8 nM | 103 nM | 125 nM | 102 nM
UGUCAUUGGUCUGAUACCAGGUUGAUCGGUAAACGAUCUCCUGGAGUGAUGUUCCAAAAUAUCCCUUGGCAGCAGACCGAUGACU [TheoBS 6 #SwitchBubble #StaticStem] | 571 nM | 320 nM | 545 nM | 492 nM | 350 nM
UGUCAUUGGUCUGAUACCAGUACCCUUGGCAGCCGAGGAGUGAUGUUCCAAGGAUACCAGUACCCUUGGCAGCAGACCGAUGACU [TheoBS 30 #DoubleAptamer #SwitchBubble] | 219 nM | 178 nM | 186 nM | 108 nM | 215 nM
